Measurements as given in article PMC10439073.

Legend:
Experiment in all cases: SPR
[1] = molecular target: BAT1706 (human)
[2] = molecular target: EU-bevacizumab (human)
[3] = molecular target: US-bevacizumab (human)

Substance “FcγRIIIa-158F (from UniProt P08637 17-208) (receptor)” has a Kd [1] of 769 nM, a Kd [2] of 951 nM and a Kd [3] of 983 nM.
